Two substances from publication PMC7893823 can be followed below.

The target in experiment [1] is nucleosome core particle (NCP) with human histones H2A, H2B, H3.1 and H4 and the 145-base pair Widom 601 DNA, P04908;P06899;P68431;P62805. The experiment can be described thus: gel shift assay. Conditions: NCP 0.52 µM, dsDNA 50-mer competitor DNA included, read off a plot.
Experiment [2] deals with human SET8 (KMT5A Isoform 2), Q9NQR1-2. Briefly: gel shift assay. Conditions: NCPapd 0.52 µM, dsDNA 50-mer competitor DNA included, read off a plot. (In general: A gel shift assay detects complexes by their altered migration in electrophoresis.)
Sequence of human SET8 (KMT5A Isoform 2), Q9NQR1-2 (Q9NQR1 whole entry, looked up, canonical isoform): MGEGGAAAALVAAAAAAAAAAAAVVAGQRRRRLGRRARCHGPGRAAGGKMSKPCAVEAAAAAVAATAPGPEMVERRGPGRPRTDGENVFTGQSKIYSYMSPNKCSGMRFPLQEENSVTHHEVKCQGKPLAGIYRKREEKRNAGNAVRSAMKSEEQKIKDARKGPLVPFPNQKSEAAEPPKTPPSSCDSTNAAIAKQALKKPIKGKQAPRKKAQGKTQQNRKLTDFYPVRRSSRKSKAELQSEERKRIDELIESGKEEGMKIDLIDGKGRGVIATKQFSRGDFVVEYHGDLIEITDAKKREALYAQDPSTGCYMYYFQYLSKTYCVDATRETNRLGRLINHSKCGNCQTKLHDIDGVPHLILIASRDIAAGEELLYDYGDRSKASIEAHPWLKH

In the case of “human SET8 (KMT5A Isoform 2) (from UniProt Q9NQR1-2) R188A; R192A”, the response in experiment [1] (SET8 R188A/R192A 1.0 µM, parent: est. 61) amounted to 23%; in experiment [1] (SET8 R188A/R192A 2.1 µM, parent: est. 91), 54%.
For the substance “nucleosome core particle (NCP) with human histones H2A, H2B, H3.1 and H4 and the 145-base pair Widom 601 DNA (from UniProt P04908;P06899;P68431;P62805) H2A:E56T; H2A:E61T; H2A:E64T; H2A:D90S; H2A:E91T; H2A:E92T; H2B:E105T; H2B:E113T”, the response in experiment [2] (SET8 1.0 µM, parent: est. 61) was 4.5%; in experiment [2] (SET8 2.1 µM, parent: est. 91) it was 13%.
